Assay [1] addresses T1, wild-type human integrin α5β1 (octyl β-D-glucopyranoside preparation) (human, UniProt P08648 42-1049; P05556 21-798).
T1 construct: From Immunological Sciences; also called a5p1; asp1
The assay can be described thus: direct binding to integrin-coated microtiter plates, one site specific binding fit.

For assay [2], the target named is T2, wild-type human integrin αvβ5 (octyl β-D-glucopyranoside preparation) (human, UniProt P06756 31-1048; P18084 24-799).
T2 construct: From Immunological Sciences
T2 sequence (P06756 31-1048, chain 1 of 2): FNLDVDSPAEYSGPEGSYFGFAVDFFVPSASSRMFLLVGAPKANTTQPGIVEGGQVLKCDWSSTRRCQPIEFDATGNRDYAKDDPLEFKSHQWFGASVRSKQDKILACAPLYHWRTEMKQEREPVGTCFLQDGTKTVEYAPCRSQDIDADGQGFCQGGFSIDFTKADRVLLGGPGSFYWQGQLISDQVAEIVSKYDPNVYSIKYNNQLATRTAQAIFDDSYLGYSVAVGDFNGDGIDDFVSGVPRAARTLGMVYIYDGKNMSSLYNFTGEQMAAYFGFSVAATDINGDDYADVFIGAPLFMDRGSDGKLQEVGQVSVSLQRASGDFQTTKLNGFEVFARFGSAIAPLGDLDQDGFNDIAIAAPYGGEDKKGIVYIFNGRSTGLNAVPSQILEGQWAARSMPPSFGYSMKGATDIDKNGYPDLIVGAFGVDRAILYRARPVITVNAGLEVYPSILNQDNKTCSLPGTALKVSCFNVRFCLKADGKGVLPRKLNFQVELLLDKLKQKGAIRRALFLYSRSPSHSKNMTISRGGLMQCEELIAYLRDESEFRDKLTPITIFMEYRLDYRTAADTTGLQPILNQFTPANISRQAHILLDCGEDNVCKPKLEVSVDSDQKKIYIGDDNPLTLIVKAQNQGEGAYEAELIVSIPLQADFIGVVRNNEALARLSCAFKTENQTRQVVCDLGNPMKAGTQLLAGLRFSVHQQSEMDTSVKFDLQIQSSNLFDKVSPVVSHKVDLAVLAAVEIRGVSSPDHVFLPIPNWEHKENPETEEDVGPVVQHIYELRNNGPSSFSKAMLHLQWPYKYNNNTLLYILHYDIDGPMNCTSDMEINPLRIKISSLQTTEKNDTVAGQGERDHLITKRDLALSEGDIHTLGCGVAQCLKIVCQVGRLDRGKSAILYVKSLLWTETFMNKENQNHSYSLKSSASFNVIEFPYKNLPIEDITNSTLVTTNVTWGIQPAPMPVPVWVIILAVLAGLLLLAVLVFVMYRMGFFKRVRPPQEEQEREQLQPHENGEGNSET
T2 sequence (P18084 24-799, chain 2 of 2): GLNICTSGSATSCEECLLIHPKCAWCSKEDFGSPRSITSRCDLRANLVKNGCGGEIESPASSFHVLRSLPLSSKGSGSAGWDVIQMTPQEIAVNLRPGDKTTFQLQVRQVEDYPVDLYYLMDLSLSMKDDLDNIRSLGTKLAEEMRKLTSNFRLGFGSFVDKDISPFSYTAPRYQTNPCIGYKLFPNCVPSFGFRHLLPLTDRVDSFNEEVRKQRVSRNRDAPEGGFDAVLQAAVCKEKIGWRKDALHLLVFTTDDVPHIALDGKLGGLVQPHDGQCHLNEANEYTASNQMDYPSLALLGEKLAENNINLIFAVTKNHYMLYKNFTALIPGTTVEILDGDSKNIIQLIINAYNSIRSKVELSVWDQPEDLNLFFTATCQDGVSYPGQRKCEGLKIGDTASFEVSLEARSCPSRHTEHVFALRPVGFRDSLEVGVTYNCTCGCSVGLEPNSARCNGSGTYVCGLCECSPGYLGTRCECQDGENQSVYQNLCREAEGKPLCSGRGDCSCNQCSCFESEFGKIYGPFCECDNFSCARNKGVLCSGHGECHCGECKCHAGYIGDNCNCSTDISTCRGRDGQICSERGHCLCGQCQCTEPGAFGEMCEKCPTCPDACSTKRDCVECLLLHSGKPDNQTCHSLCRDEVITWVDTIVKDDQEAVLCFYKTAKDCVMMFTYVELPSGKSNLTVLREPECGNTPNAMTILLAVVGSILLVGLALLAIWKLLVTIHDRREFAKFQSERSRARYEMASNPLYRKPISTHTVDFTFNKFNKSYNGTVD
The assay is described as above.

The target in assay [3] is T3, wild-type human integrin αvβ3 (octyl β-D-glucopyranoside preparation) (human, UniProt P06756 31-1048; P05106 27-788).
T3 construct: From Immunological Sciences
T3 sequence (P06756 31-1048, chain 1 of 2): as the sequence (P06756 31-1048, chain 1 of 2) above
T3 sequence (P05106 27-788, chain 2 of 2): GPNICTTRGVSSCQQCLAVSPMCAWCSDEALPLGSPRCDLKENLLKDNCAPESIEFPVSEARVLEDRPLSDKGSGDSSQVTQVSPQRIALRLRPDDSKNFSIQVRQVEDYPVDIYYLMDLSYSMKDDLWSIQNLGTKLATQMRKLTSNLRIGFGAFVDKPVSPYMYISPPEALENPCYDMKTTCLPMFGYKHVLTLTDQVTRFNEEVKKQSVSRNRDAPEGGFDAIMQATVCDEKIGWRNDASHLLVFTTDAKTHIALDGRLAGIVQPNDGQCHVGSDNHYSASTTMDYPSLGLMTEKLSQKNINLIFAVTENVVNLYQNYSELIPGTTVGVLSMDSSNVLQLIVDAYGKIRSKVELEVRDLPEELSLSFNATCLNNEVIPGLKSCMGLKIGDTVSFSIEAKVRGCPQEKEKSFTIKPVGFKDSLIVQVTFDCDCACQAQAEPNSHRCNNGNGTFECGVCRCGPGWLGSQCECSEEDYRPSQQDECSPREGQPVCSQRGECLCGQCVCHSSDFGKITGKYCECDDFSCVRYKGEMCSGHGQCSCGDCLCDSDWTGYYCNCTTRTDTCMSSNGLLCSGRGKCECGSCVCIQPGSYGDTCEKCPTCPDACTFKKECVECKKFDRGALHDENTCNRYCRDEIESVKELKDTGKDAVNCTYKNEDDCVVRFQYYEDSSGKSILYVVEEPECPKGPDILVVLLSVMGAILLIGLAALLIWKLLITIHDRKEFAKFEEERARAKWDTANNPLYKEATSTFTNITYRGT
Described as above.

In assay [4] the target is T4, recombinant human αvβ6 extracellular domain (R&D Systems) (human, UniProt P06756 31-992; P18564 22-709).
T4 construct: extracellular domain; Bought; also called recombinant extracellular αvβ6; purified αvβ6
Described as above.

Assay [5] deals with T5, αvβ8 integrin (purified, coated on microtiter plates) (UniProt P06756 31-992; P26012 43-684).
T5 construct: The Reagents section names no source for αvβ8; also called avs8
The description is as above.

Another assay deals with T6, bovine serum albumin (bovine, UniProt P02769 25-607).
T6 construct: Negative control in the STD NMR experiments; also called BSA
T6 sequence (P02769 25-607 limits assumed): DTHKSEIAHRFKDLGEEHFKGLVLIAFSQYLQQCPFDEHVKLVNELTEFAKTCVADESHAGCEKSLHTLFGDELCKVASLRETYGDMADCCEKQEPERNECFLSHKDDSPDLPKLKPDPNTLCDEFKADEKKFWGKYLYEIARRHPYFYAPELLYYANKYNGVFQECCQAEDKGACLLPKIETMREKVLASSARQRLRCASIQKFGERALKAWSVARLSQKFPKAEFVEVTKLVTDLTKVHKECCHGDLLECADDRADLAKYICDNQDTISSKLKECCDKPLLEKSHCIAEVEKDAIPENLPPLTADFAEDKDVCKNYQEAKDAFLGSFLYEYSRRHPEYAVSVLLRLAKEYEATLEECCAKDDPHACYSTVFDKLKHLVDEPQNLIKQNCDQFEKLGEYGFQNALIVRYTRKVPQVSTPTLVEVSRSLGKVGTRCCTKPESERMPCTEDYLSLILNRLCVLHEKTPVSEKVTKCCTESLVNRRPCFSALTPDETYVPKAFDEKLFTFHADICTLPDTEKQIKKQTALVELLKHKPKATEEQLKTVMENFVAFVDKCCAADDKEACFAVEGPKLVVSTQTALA
The assay can be described thus: 2D-STD-1H-15N-HSQC NMR, negative control.

In assay [6] the target is T4, recombinant human αvβ6 extracellular …. Kind of assay: STD NMR, 0.5 mM peptide with 4 µM αvβ6.
In assay [7] the target is T2, wild-type human integrin αvβ5 (octyl …). The assay can be described thus: competitive binding assay on αvβ5-coated plates, isoDGR/STV-HRP probe.
Assay [8] concerns the target T3, wild-type human integrin αvβ3 (octyl …). The assay can be described thus: competitive binding assay on αvβ3-coated plates, isoDGR/STV-HRP probe.
Assay [9] has as its target T4, recombinant human αvβ6 extracellular …. Kind of assay: competitive binding assay on αvβ6-coated plates, isoDGR/STV-HRP probe.
Assay [10] concerns the target T1, wild-type human integrin α5β1 (octyl …). Kind of assay: competitive binding assay on α5β1-coated plates, isoDGR/STV-HRP probe.
Assay [11] has as its target T5, αvβ8 integrin (purified, coated on …). The assay can be described thus: competitive binding assay on αvβ8-coated plates, isoDGR/STV-HRP probe.
Assay [12] concerns the target T4, recombinant human αvβ6 extracellular …. Kind of assay: direct binding to integrin-coated plates, near-infrared fluorescence.
Assay [13] deals with T5, αvβ8 integrin (purified, coated on …). The description is as above.
Assay [14] has as its target T4, recombinant human αvβ6 extracellular …. Kind of assay: competitive αvβ6 binding assay, isoDGR-HRP probe.
For assay [15] the target is unchanged. The assay can be described thus: competitive binding assay on αvβ6-coated plates, isoDGR/STV-HRP probe. This is another data set of the same source.

Where two headings read alike, the source gives them in different places. *1 amine or outer side, *2 acyl side, *3 side chain or, on linkers, in order; H or OH if unused. Bridges are numbered along the chain shown (N, C = ends). Where no end group is shown, it is not given here. [ ]: non-standard residue; d: D form. The star is where a group is joined. maleimide‑NOTA = 1,4,7-triazacyclononane-1,4-bis-acetic acid-7-maleimidoethylacetamide; Biotin = O=C1N[C@H]2[C@H](CS[C@H]2CCCCC(=O)*)N1; Lys(N3) = [N-]=[N+]=NCCCC[C@H](N)C(=O)O; βAsp = O=C(O)[C@H](CC(=O)[*:2])N[*:1]; hSer(lactone) = O=C1OCC[C@@H]1N*; Pra = C#CC[C@H](N)C(=O)O

The source of these data is patent publication US20220402980A1 (OSPEDALE SAN RAFFAELE S R L, published 2022).

What is called Kd is the constant that tells how readily two partners part at equilibrium. As usually defined, the Ki is a dissociation constant, usually derived from enzyme kinetics or from competition with a known ligand.

T1 sequence (P08648 42-1049, chain 1 of 2): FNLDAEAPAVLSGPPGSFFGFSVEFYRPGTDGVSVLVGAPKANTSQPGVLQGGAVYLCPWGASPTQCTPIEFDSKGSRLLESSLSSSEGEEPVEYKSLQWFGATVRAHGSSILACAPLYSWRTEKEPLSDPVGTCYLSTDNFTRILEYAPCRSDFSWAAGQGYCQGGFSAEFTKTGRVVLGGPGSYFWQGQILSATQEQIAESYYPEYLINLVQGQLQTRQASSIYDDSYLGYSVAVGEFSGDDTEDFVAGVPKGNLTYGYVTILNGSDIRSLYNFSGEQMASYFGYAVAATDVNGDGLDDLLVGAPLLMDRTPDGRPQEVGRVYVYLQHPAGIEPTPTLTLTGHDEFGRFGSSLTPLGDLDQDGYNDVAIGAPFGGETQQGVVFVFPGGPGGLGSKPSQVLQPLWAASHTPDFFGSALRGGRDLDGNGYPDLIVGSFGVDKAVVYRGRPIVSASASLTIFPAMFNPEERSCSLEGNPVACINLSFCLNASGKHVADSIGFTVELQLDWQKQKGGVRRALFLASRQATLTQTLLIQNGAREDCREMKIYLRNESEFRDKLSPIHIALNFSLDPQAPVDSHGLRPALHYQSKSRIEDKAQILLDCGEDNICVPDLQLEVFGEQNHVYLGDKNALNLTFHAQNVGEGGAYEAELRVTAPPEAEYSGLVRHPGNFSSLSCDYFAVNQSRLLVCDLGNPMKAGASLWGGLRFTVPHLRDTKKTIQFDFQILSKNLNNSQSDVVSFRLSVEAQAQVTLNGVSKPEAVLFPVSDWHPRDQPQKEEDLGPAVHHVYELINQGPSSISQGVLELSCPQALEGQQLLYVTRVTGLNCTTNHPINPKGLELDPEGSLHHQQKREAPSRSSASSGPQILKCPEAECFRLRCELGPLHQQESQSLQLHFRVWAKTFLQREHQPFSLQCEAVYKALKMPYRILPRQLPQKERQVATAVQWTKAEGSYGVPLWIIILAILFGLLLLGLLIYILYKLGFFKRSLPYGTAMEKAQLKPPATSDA
T1 sequence (P05556 21-798, chain 2 of 2): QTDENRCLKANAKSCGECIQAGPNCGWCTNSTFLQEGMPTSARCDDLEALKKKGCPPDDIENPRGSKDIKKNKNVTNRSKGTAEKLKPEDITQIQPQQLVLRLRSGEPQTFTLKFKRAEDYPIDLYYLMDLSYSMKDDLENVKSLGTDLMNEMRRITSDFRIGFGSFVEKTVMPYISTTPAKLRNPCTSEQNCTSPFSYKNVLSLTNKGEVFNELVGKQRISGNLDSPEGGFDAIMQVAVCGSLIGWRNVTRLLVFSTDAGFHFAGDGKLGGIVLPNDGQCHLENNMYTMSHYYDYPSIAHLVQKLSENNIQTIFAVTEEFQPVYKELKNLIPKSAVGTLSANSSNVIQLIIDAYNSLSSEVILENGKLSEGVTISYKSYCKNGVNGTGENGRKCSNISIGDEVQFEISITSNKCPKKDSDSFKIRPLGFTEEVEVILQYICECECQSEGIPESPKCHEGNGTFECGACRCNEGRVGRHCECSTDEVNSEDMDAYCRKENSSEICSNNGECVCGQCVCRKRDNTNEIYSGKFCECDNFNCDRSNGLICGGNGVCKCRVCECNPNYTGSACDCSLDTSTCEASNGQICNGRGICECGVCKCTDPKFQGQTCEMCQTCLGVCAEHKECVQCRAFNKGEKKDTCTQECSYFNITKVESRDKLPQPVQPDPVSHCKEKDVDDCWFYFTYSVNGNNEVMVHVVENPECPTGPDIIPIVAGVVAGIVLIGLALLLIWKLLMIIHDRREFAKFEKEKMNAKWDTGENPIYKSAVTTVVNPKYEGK

Regarding Ac-C[βAsp]GRCGVRSSSRTPSDK(Biotin)Y (also: in complex with streptavidin-peroxidase conjugate), the Kd came out at 0.0013 µM in [1]; 0.0017 µM in assay [2]; 0.0013 µM in [3]; 0.0014 µM in assay [4]; 0.0016 µM in assay [5].

B1: recombinant 13C/15N peptide 1 (peptide)
peptide: FETLRGDERILSILRHQNLLKELQD-{hSer(lactone)}
modifications: also: 13C/15N isotope labelled
notes: Used in the 2D-STD NMR experiments; also called recombinant peptide 1; 15N labelled peptide 1
Regarding B1, the binding result in the assay with bovine serum albumin is reported as “no binding”; in assay [6], “binds”.

B2: peptide 1 (CgA-derived peptide, residues 39-63), synthetic (peptide)
peptide: FETLRGDERILSILRHQNLLKELQD
notes: Synthetic peptide bought from Biomatik; no terminal modification is stated for it; also called compound 1
Consider B2, for which the inhibition constant (Ki) in assay [7] stood at 3.6 µM; in assay [8] it was 2.19 µM; in assay [9] it was 0.0155 µM; in assay [10] it was 9.21 µM; in assay [11] it was 7.66 µM.

B3: peptide 3 (peptide)
peptide: FETLRGDERILSILR-NH2
notes: Made by Fmoc-SPPS on a Rink-amide resin; also called compound 3
With B3, the Ki in [7] turned out to be 2.04 µM; in assay [8], 1.25 µM; in assay [9] it was 0.277 µM; in assay [10] it was 10.1 µM; in [11], 31.2 µM.
On to C(maleimide‑IRDye 800CW)FETLRGEERILSILRHQNLLKELQD (RGE control conjugate) [2a-IRDye (peptide 2a coupled via Cys to maleimide-IRDye 800CW)], for which the binding result in assay [12] and in [13] was “no binding (tested: range 0.01-100 nM)” in each case.
Take C(maleimide‑NOTA)FETLRGEERILSILRHQNLLKELQD (Negative control conjugate) [NOTA-2a (peptide 2a coupled to maleimide-NOTA)]: the binding result in assay [14] is on record as “no binding”.
CFETLRGDLRILSILR[Pra]QNL[Lys(N3)]KELQD-NH2 (triazole 17-21, also called CgA38-63-derived peptide) [peptide 5a]: the Ki in [15] amounted to 0.0015 µM.
